Assay results: article PMC9352680, “A comprehensive thermodynamic model for RNA binding by the Saccharomyces cerevisiae Pumilio protein PUF4”
Where a chain is given by its changes, count along the chain named. In names and notes the source's numbering stands.

T1: PUF4 RNA-binding domain (Saccharomyces cerevisiae, UniProt P25339 537-888)
T1 sequence: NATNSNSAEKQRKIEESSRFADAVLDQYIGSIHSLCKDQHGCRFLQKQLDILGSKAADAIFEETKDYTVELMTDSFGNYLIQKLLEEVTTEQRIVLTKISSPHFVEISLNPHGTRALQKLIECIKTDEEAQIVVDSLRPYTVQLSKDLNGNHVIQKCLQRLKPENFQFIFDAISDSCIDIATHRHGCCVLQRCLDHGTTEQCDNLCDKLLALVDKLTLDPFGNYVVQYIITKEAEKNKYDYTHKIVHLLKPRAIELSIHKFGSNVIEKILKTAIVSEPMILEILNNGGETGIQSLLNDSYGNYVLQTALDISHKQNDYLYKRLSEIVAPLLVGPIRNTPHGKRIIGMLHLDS

B1: Ib_S2_P4E.1_K4.1_C4.1_H4.1_A4.1_F4.1_[T8G]_[A9G]_T4.1 (ssRNA)
RNA: UUUGAUUAAUAUGAUAUCGUUCUUUCUUGUAUAUGGUUCUUUCUCGAUAUCAUAUUAAUCUUU
B2: Ib_S2_P4E.1_K4.1_C4.1_H4.1_A4.1_[A6C]_F4.1_[T8C]_T4.1 (ssRNA)
RNA: B1 RNA with A33C, G35C, G36A
B3: Ib_S2_P4E.1_K4.1_C4.1_H4.1_A4.1_[A6G]_F4.1_[A9G]_T4.1 (ssRNA)
RNA: B1 RNA with A33G, G35U
B4: Ib_S2_P4E.1_K4.1_C4.1_H4.1_A4.1_[T5A]_F4.1_[A9G]_T4.1 (ssRNA)
RNA: B1 RNA with U32A, G35U
B5: Ib_S2_P4E.1_K4.1_C4.1_H4.1_A4.1_[T5A]_F4.1_[T8C]_T4.1 (ssRNA)
RNA: B1 RNA with U32A, G35C, G36A
B6: Ib_S2_P4E.1_K4.1_C4.1_H4.1_[G2C]_A4.1_F4.1_[A9T]_T4.1 (ssRNA)
RNA: B1 RNA with G29C, G35U, G36U
B7: Ia_S2_P4E.1_K4.1_C4.1_H4.1_A4.1_F4.1_[A9C]_T4.1 (ssRNA)
RNA: B1 RNA with G35U, G36C
B8: Ib_S2_P4E.1_K4.1_C4.1_H4.1_[T1A]_A4.1_F4.1_[A9T]_T4.1 (ssRNA)
RNA: B1 RNA with U28A, G35U, G36U
B9: Ic_S2_P4E.1_K4.1_C4.1_H4.1_A4.1_[T5C]_F4.1_[A9C]_T4.1 (ssRNA)
RNA: B1 RNA with U32C, G35U, G36C
B10: Ib_S2_P4E.1_K4.1_C4.1_H4.1_A4.1_[T7A]_F4.1_[T8C]_T4.1 (ssRNA)
RNA: B1 RNA with U34A, G35C, G36A
B11: Ib_S2_P4E.1_K4.1_C4.1_H4.1_A4.1_[T5A]_F4.1_[A9T]_T4.1 (ssRNA)
RNA: B1 RNA with U32A, G35U, G36U
B12: Ic_S2_P4E.1_K4.1_C4.1_H4.1_A4.1_[T7A]_F4.1_[T8A]_T4.1 (ssRNA)
RNA: B1 RNA with U34A, G35A, G36A
B13: Ib_S2_P4E.1_K4.1_C4.1_H4.1_[A4G]_A4.1_F4.1_[T8C]_T4.1 (ssRNA)
RNA: B1 RNA with A31G, G35C, G36A
B14: Ic_S2_P4E.1_K4.1_C4.1_H4.1_A4.1_F4.1_[T8G]_[A9C]_T4.1 (ssRNA)
RNA: B1 RNA with G36C
B15: Ib_S2_P4E.1_K4.1_C4.1_H4.1_[T1C]_A4.1_F4.1_[T8A]_T4.1 (ssRNA)
RNA: B1 RNA with U28C, G35A, G36A
B16: Ib_S2_P4E.1_K4.1_C4.1_H4.1_[G2A]_A4.1_F4.1_[A9C]_T4.1 (ssRNA)
RNA: B1 RNA with G29A, G35U, G36C
B17: Ib_S2_P4E.1_K4.1_C4.1_H4.1_[A4G]_A4.1_F4.1_[A9C]_T4.1 (ssRNA)
RNA: B1 RNA with A31G, G35U, G36C
B18: Ib_S2_P4E.1_K4.1_C4.1_H4.1_[A4C]_A4.1_F4.1_[A9C]_T4.1 (ssRNA)
RNA: B1 RNA with A31C, G35U, G36C
B19: Ic_S2_P4E.1_K4.1_C4.1_H4.1_A4.1_F4.1_[T8A]_T4.1 (ssRNA)
RNA: B1 RNA with G35A, G36A
B20: Ic_S2_P4E.1_K4.1_C4.1_H4.1_A4.1_F4.1_[T8G]_[A9T]_T4.1 (ssRNA)
RNA: B1 RNA with G36U
B21: Ib_S2_P4E.1_K4.1_C4.1_H4.1_A4.1_F4.1_[T8A]_[A9G]_T4.1 (ssRNA)
RNA: B1 RNA with G35A
B22: Ib_S2_P4E.1_K4.1_C4.1_H4.1_A4.1_[A6T]_F4.1_[T8A]_T4.1 (ssRNA)
RNA: B1 RNA with A33U, G35A, G36A
B23: Ic_S2_P4E.1_K4.1_C4.1_H4.1_A4.1_[A6T]_F4.1_[T8C]_T4.1 (ssRNA)
RNA: B1 RNA with A33U, G35C, G36A
B24: Ib_S2_P4E.1_K4.1_C4.1_H4.1_A4.1_[A6C]_F4.1_[T8A]_T4.1 (ssRNA)
RNA: B1 RNA with A33C, G35A, G36A
B25: Ib_S2_P4E.1_K4.1_C4.1_H4.1_A4.1_F4.1_[T8A]_[A9C]_T4.1 (ssRNA)
RNA: B1 RNA with G35A, G36C
B26: Ib_S2_P4E.1_K4.1_C4.1_H4.1_[A4G]_A4.1_F4.1_[A9T]_T4.1 (ssRNA)
RNA: B1 RNA with A31G, G35U, G36U
B27: Ib_S2_P4E.1_K4.1_C4.1_H4.1_[A4T]_A4.1_F4.1_[A9G]_T4.1 (ssRNA)
RNA: B1 RNA with A31U, G35U
B28: Ic_S2_P4E.1_K4.1_C4.1_H4.1_A4.1_F4.1_[T8C]_[A9G]_T4.1 (ssRNA)
RNA: B1 RNA with G35C
B29: Ic_S2_P4E.1_K4.1_C4.1_H4.1_A4.1_F4.1_[T8C]_[A9C]_T4.1 (ssRNA)
RNA: B1 RNA with G35C, G36C
B30: Ib_S2_P4E.1_K4.1_C4.1_H4.1_[A4T]_A4.1_F4.1_[T8C]_T4.1 (ssRNA)
RNA: B1 RNA with A31U, G35C, G36A
B31: Ib_S2_P4E.1_K4.1_C4.1_H4.1_[T1C]_A4.1_F4.1_[A9C]_T4.1 (ssRNA)
RNA: B1 RNA with U28C, G35U, G36C
B32: Ib_S2_P4E.1_K4.1_C4.1_H4.1_[T3C]_A4.1_F4.1_[A9T]_T4.1 (ssRNA)
RNA: B1 RNA with U30C, G35U, G36U
B33: Ib_S2_P4E.1_K4.1_C4.1_H4.1_[T1G]_A4.1_F4.1_[A9T]_T4.1 (ssRNA)
RNA: B1 RNA with U28G, G35U, G36U
B34: Ib_S2_P4E.1_K4.1_C4.1_H4.1_A4.1_[T5A]_F4.1_[T8A]_T4.1 (ssRNA)
RNA: B1 RNA with U32A, G35A, G36A
B35: Ib_S2_P4E.1_K4.1_C4.1_H4.1_[G2T]_A4.1_F4.1_[A9T]_T4.1 (ssRNA)
RNA: B1 RNA with G29U, G35U, G36U
B36: Ib_S2_P4E.1_K4.1_C4.1_H4.1_[A4T]_A4.1_F4.1_[T8A]_T4.1 (ssRNA)
RNA: B1 RNA with A31U, G35A, G36A
B37: Ic_S2_P4E.1_K4.1_C4.1_H4.1_A4.1_[T7C]_F4.1_[T8A]_T4.1 (ssRNA)
RNA: B1 RNA with U34C, G35A, G36A
B38: Ib_S2_P4E.1_K4.1_C4.1_H4.1_A4.1_[T5A]_F4.1_[A9C]_T4.1 (ssRNA)
RNA: B1 RNA with U32A, G35U, G36C
B39: Ic_S2_P4E.1_K4.1_C4.1_H4.1_A4.1_[T7G]_F4.1_[T8C]_T4.1 (ssRNA)
RNA: B1 RNA with U34G, G35C, G36A
B40: Ib_S2_P4E.1_K4.1_C4.1_H4.1_A4.1_[T5C]_F4.1_[T8A]_T4.1 (ssRNA)
RNA: B1 RNA with U32C, G35A, G36A
B41: Ib_S2_P4E.1_K4.1_C4.1_H4.1_[A4G]_A4.1_F4.1_[A9G]_T4.1 (ssRNA)
RNA: B1 RNA with A31G, G35U
B42: Ib_S2_P4E.1_K4.1_C4.1_H4.1_[A4G]_A4.1_F4.1_[T8A]_T4.1 (ssRNA)
RNA: B1 RNA with A31G, G35A, G36A
B43: Ib_S2_P4E.1_K4.1_C4.1_H4.1_[A4C]_A4.1_F4.1_[T8C]_T4.1 (ssRNA)
RNA: B1 RNA with A31C, G35C, G36A
B44: Ib_S2_P4E.1_K4.1_C4.1_H4.1_[T3C]_A4.1_F4.1_[A9C]_T4.1 (ssRNA)
RNA: B1 RNA with U30C, G35U, G36C
B45: Ib_S2_P4E.1_K4.1_C4.1_H4.1_[G2C]_A4.1_F4.1_[T8C]_T4.1 (ssRNA)
RNA: B1 RNA with G29C, G35C, G36A
B46: Ib_S2_P4E.1_K4.1_C4.1_H4.1_[G2A]_A4.1_F4.1_[A9G]_T4.1 (ssRNA)
RNA: B1 RNA with G29A, G35U
B47: Ia_S2_P4E.1_K4.1_C4.1_H4.1_A4.1_F4.1_[T8C]_T4.1 (ssRNA)
RNA: B1 RNA with G35C, G36A
B48: Ib_S2_P4E.1_K4.1_C4.1_H4.1_[G2T]_A4.1_F4.1_[A9G]_T4.1 (ssRNA)
RNA: B1 RNA with G29U, G35U
B49: Ic_S2_P4E.1_K4.1_C4.1_H4.1_A4.1_[T7C]_F4.1_[T8C]_T4.1 (ssRNA)
RNA: B1 RNA with U34C, G35C, G36A
B50: Ic_S2_P3E.1_K3.1_C3.1_H3.1_A3.1_[T5G]_[A6T]_F3.1_T3.1 (ssRNA)
RNA: UUUGAUUAAUAUGAUAUCGUUCUUUCUUGUAGUUAUUCUUUCUCGAUAUCAUAUUAAUCUUU
B51: Ic_S2_P3E.1_K3.1_C3.1_H3.1_A3.1_[A6C]_F3.1_T3.1 (ssRNA)
RNA: B50 RNA with G32U, U33C
B52: Ic_S2_P3E.1_K3.1_C3.1_H3.1_A3.1_[T5C]_[A6C]_F3.1_T3.1 (ssRNA)
RNA: B50 RNA with G32C, U33C
B53: Ic_S2_P3E.1_K3.1_C3.1_H3.1_A3.1_[T5C]_[A6G]_F3.1_T3.1 (ssRNA)
RNA: B50 RNA with G32C, U33G
B54: Ib_S2_P3E.1_K3.1_C3.1_H3.1_A3.1_[T5A]_[A6C]_F3.1_T3.1 (ssRNA)
RNA: B50 RNA with G32A, U33C
B55: Ic_S2_P3E.1_K3.1_C3.1_H3.1_A3.1_[A6T]_F3.1_T3.1 (ssRNA)
RNA: B50 RNA with G32U
B56: Ic_S2_P3E.1_K3.1_C3.1_H3.1_A3.1_[T5A]_[A6T]_F3.1_T3.1 (ssRNA)
RNA: B50 RNA with G32A
B57: Ib_S2_P3E.1_K3.1_C3.1_H3.1_A3.1_[T5C]_[A6T]_F3.1_T3.1 (ssRNA)
RNA: B50 RNA with G32C

Molecular target: T1, PUF4 RNA-binding domain
Experiment: Mg; RNA-MaP; 20 mM Na-HEPES pH 7.4, 30 mM KOAc, 0.75 mM MgCl2, 0.1% Tween-20, 5% glycerol, 0.1 mg/mL BSA, 2 mM DTT; 25 C; 0.0125-409.6 nM protein
Details: tags: N-His6-TEV cleaved; C-SNAP kept, Cy3B-labelled; label: tethered on chip by stalled RNA polymerase

Row | Binder | Kd [nM]
1 | UCUCUUCGUAUAUAUCUCUU (ssRNA) [Ia_S1_P3E.1_K3.1_C3.1_H3.1_[T1C]_A3.1_F3.1_T3.1] | 1180
2 | B1 | 58.6
3 | B2 | 30.6
4 | B3 | 26.5
5 | B4 | 9.22
6 | B5 | 58.5
7 | B6 | 983
8 | B7 | 2.83
9 | B8 | 1380
10 | B9 | 2.72
11 | B10 | 18.8
12 | B11 | 11
13 | B12 | 16.9
14 | B13 | 16.2
15 | B14 | 15.4
16 | B15 | 451
17 | B16 | 200
18 | B17 | 11.9
19 | B18 | 624
20 | B19 | 2.04

Row | Binder | Kd [nM]
21 | B20 | 5.99
22 | B21 | 9.03
23 | B22 | 17.8
24 | B23 | 104
25 | B24 | 10.7
26 | B25 | 6.86
27 | B26 | 5.78
28 | B27 | 63.2
29 | B28 | 7.89
30 | B29 | 8.44
31 | B30 | 1250
32 | B31 | 607
33 | B32 | 957
34 | B33 | 1380
35 | B34 | 13.5
36 | B35 | 1670
37 | B36 | 122
38 | B37 | 18
39 | B38 | 17.1
40 | B39 | 42

Row | Binder | Kd [nM]
41 | B40 | 2.52
42 | B41 | 28.9
43 | B42 | 3.78
44 | B43 | > 2300
45 | B44 | 1070
46 | B45 | 848
47 | B46 | 203
48 | B47 | 7.94
49 | B48 | > 2300
50 | B49 | 12
51 | B50 | 181
52 | B51 | 8.48
53 | B52 | 10.6
54 | B53 | 33.1
55 | B54 | 66
56 | B55 | 11.4
57 | B56 | 72.2
58 | B57 | 14.8
